Data as given in article PMC9882595.

Target: Filamentous actin (F-actin) (rabbit) (UniProt P68135)
Assay: co-sedimentation; high speed actin binding co-sedimentation: 10 uM Vt variant and 20 uM F-actin in actin polymerization buffer (10 mM Tris, 200 mM KCl, 10 mM imidazole, 2.5 mM MgCl2, 1 mM EGTA, 2 mM DTT, pH 7.5), room temperature 1 hr, 185,000 RCF for 60 min; fraction of Vt in the pellet by SDS-PAGE densitometry

| reduction of F-actin binding relative to WT Vt [%] | Substance |
| --- | --- |
| 2 | Vt E1015A (domain or fragment) |
| 2 | Vt E1021A (domain or fragment) |
